According to patent US11879149B2, “Quantification method of ethanolamine phosphate, oxidoreductase for quantification, composition for quantification, kit for quantification and sensor for quantification” (KIKKOMAN CORPORATION, priority 2018, dated 2024):

B1: LcAOX: amine oxidase derived from Lichtheimia corymbifera, GenBank ID CDH56199.1, SEQ ID NO: 15 (protein, listed as Lichtheimia corymbifera)
chain: MSSSSSATPKPHPLDPLSADEIRRAAAIIREKRGQDTSYVFNSLTLKEPAKQQMMLYLGWVNSSSQPKPVTIDREVFAVLIDRPSGLVHEMTVNLDKSAVTSWNKVEGRQPTINIFEMLEAEREILKDERVKDQCRQLGITDMSMVYADPWGVGYHEIKGKRLVQALLYARTSPDDNQYAHPLDFNPLYDLNAKKVLDIVVSKRRNSSFERPVIPMANHHFLPEHLGEDRLRKDIKPIEITQPQGVSFSIRDGHQLHWQKWDMHLSFNYREGLVINNLSYRDMDSTVRPIIYRMSLAEMVVPYANPYKPYNHKMAFDVGEYGLGNLTNSLELGCDCVGKIGYLDAVLSDLNGDPWHIPNAICIHEEDTGLLFKHSDYRTGKAHSARSRRLVISHIVTAANYDYGLYYYFYQDGTIQYEVKATGELNTQVLAEDEDAAPYGTIVAPQVDAQHHQHLFSMRIDPMLDGPNNSVAEVDVVASDLPVGHPHNSVGNSFYPVTKVFNTTDEAKTMASVERHRTWKIINESKIHPYAKQPVGFKMMAHPTPPLLPKPGSIVYERAMFASKTLWVTPHNDKQLYPGGFYCYQSEPSENLGLPQWTKETQNVRDTDIVCWLNFGITHIPRVEDFPIMPIETCGIMLKPANFFLCNPGIDIPPSTRQSTKSAYANDATCCRKNNL
B2: SrAOX3925: amine oxidase derived from Syncephalastrum racemosum, GenBank ID ORZ03925.1, SEQ ID NO: 25 (protein, listed as Syncephalastrum racemosum)
chain: MTIVSPSHPLDPLTPSEIRHVAEIVRATRSPDDKTPRDYIFSSICLKEPHKDKTLAYLQSVSEEAAALMPEREALVILIDRPSGLVHEILVSITDEKVKSAKTLKNVQPTQHVLEMIEAEKIITKDPSVIEECRKLGITDMKNVYADPWTVGYHAQFKSSKRLMQALMYMRTSPDDNQYAHPLDFVPIYDVNAQKVVEILRQETSEASKYDRPTVPLENHQFLPEHIGVENLRKDIKPIEITQPEGVSFTVRGREIEWQNWSMHVGFNYREGVIINNVSYKDKGNVRPLFYRVSVSEMVVPYAHPKEPFNHKMAFDVGEYGLGNLTNSLELGCDCLGSIYYMDGVCNNLDGEPWVIPNAICIHEEDTGLLFKHTDYRTDKAHSARSRRLVISQIVTAANYDYGLYFYFYQDGTFQYEVKATGELNTQVFAEDENPAPYGTAVAPQVVGQHHQHLFMMRIDPMLDGRLNSVAQVDVLPSEYPVGHVENPIGNAFSPITTIYSDTTEAQAHGNLESSRTWKIINESKLHPYTKEPVGYKLVSPNTPPMLPKPGSLVYERAKFATKTIWVTPYDPDQIYPAGFYCSQSPGDDSMGLPAWTKEPQSVRGRDVVVWLTFGLTHIPRVEDFPVMPVETCGWALKACNFFLGNPGIDIPAAQKGTSKRVNGACCA
B3: LrHP: hypothetical protein derived from Lichtheimia ramosa, GenBank ID CDS02610.1, SEQ ID NO: 20 (protein, listed as Lichtheimia ramosa)
chain: MSSSPIKPYPLDPLTADEIRRAAALIRETRGQDTTYVFNSLTLKEPSKQQMMSYLGWTNSPSHPKPVTIDREVFAVLIDRPSGLVHEMTVNLDKNQVTRWNKVEGRQPTVNVFEMLEAEREILKDERVKEQCRQLGINDMSMVFADPWGVGYHEIKGKRLVQALMYARTSPDDNQYAHPLDFNPLYDVNAKKVIDIIVSKRRNSSFDRPVIPMANHHFLPEHLGQDRLRKDIKPIEITQPQGVSFSIRDGHQLHWQKWDMHLSFNYREGLVINNLSYRDMDGTVRPIIYRMSLSEMVVPYANPYKPYNHKMAFDVGEYGLGNLTNSLELGCDCVGKICYLDATLSDLNGDPWQIPNAICIHEEDTGLLFKHTDYRTGKAHSARSRRLVISHIVTAANYDYGLYYYFYQDGTIQYEVKATGELNTQVLAADEDAAPYGTIVAPQVDAQHHQHLFSMRIDPMVDGPNNSVAEVDVVASDLPVGHPHNSIGNSFYPVTKVFNTTDEAKTMASIERHRSWKIINENKIHPYAKQPVGFKMMAHPTPPLLPKPGSIVYERAMFASKTLWVTPYNEEQRYPGGFYCYQSEPSENLGLPQWTKETQNVRDTDIVCWLNFGITHIPRVEDFPIMPIETCGVMLKPVNFFLGNPGIDIPPSTRQSTKSAYATEATCCRKNNL
B4: SrAOX3926: amine oxidase derived from Syncephalastrum racemosum, GenBank ID ORZ03926.1, SEQ ID NO: 30 (protein, listed as Syncephalastrum racemosum)
chain: MTVSAVIHPLDPLSPEEIRHASAIIRRERSADKTIFIFNSISLREPPKDQVLAHFGWAAGPKPAQIDRQAFVVLIDRPSGLVHEIIVSLTTSSVVSWNRKQGVQPTLHVQEMLEAEEVMLKDERVIEECRKLGIEDMSLVFADTWGVGWHKTKGKRLMQALMYMRTSPDDNQYAHPLDFTPLYDVNEQKVIDVLVAKRRNSKFERPVIPRADHQFLPEHLGEGNLRKDIKPIEIIQPEGVSFQIRGHEIDWQKWNLHIGFNYREGLVISNVSYKDMDGTVRPVFYRVSLAEMVVPYANPYEPYNHKMAFDVGEYGLGNLTNSLELGCDCVGSIFYMDGVCSDLKGDAWVIPNAICIHEEDTGLLFKHTDFRNNKAHSARSRRLVISHIVTAANYDYGLYYYFYQDGTFQYEVKATGELNTHVLAEDENPAPYGTIVAPQIDAQHHQHLFSMRIDPMVDGPTNSVAQVDVVASDLPVGHPDNAVGNAFSPITTIYANTDEAQARANGETSRYWKIINEDKIHPYTREPVGFKLMCPNTPPMLPKPGSIAYERAVFASKTVWVTPYDAEQLFPGGFYCYQSDPADRLGLPEWTKGKKDVKNKDIVLWLTFGLTHIPRVEDFPIMPVETCGFMLKPCNFFLANPGIDIPASDKHSTKSAYAHALTNGANGTGNGSTNGSSCCNKNY
B5: LaTDH: large subunit of taurine dehydrogenase from Paracoccus denitrificans, amino acid sequence SEQ ID NO: 1, expressed in E. coli (protein)
chain: MQAIEKRAGALPYDPLYDPVTARGLGPRSDYAPTYWIGTAGAPPPDDGPVTGDMDADVVVIGSGYTGLSCALHLAKMHGIKAVVLEANGVAYGCSTRNGGQAQVSSGRLKRSQWIERWGLDVARRLHAEVCEGFDLFRGLIRDHAIDCDPQDGGHYYIAHKASAMPALEKETALLRDTFGYDARMISRDELHETVARDQEAHGAMWEADGVGIHAAKLAFGYLRAARELGARVHVDSPVQGWEYRNGVHHLRTPGGTVRARRVAVATAAYAPRSLHPRLRDRLMPIMSNSIVTRVLTPAELEAVGIRKLSPLTDTRTLRHYYRLLPDNRLQIGSRAAITGRDAANPAHLDALREGMARKFPALRGIALDYSWWGWVDVSHDMMPRITGLPDLPGAFYALGYGGNGVMYSAMAGRRMAQLVAGEAVPDLPIFNNELPHEGWRTPFRRLGQWGLYKFYHYRDERR
modifications: Paracoccus denitrificans
B6: SrEAOX: ethanolamine oxidase derived from Syncephalastrum racemosum, GenBank ID BAU20376.1, SEQ ID NO: 35 (protein, listed as Syncephalastrum racemosum)
chain: MTLPTTIHPLDPLSPEEIRHVSEIIRKQRAADETTYIFNSIALREPPKEQILAHFGWTDGPKPVQIDRQAFAVLIDRPSGLVHEIIVSITTASIVSWETKEGVQPTLHVQEMLEAEQVMLKDERVIEECRKLGIEDMSMVFADTWGVGWHKTKGKRLMQALMYMRTSPDDNQYAHPLDFTPLYDVNEQKVIDVLVAKRRNSKFERPVIPRADRQFLPEHLGEENLRKDIKPIEITQPQGVSFQIRGHEIDWQKWNLHVGFNYREGLVINNVSYKDMDGTVRPMFYRVSLAEMVVPYANPYEPYNHKMAFDVGEYGLGNLTNSLELGCDCVGSIFYMDGVCSDIKGDAWVIPNAICIHEEDTGLLFKHTDFRNNKAHSARSRRLVISHIVTAANYDYGLYYYFYQDGTFQYEVKATGELNTHVLAEDEDPAPYGTIVAPQVDAQHHQHLFSMRIDPMVDGPTNSVAQVDVVASDLPVGHPDNAVGNAFSPVTTIYADTDEARARANGETSRYWKIINETRIHPYTKEPVGFKLMCPNTPPMLPKPGSIAYERAVFASNTVWVTPYDAEQLFPGGFYCYQSDPADRLGLPEWTREKKDVKNKDIVLWLTFGLTHIPRVEDFPIMPVETCGFMLKPCNFFLANPGIDIPASDRHSSKSAYAPAVANGEYGITNGTTNGSSCCSKGH

Experiments:
Format in all cases: biochemical
[1] = Oxidase activity measurement of LcAOX, LrHP, SrAOX3925, SrAOX3926, SrEAOX (4-AA/TOOS/POD, A555); conditions: pH 7.5; for oxidase activity of the crude enzymatic solution against EAP: crude enzyme solution, 50 mM EAP final; for oxidase activity of the crude enzymatic solution against EAP / oxidase activity against EAP after being purified: 37° C.; for oxidase activity against EAP after being purified: purified preparation
Method: Oxidase activity was measured for LcAOX, LrHP, SrAOX3925, SrAOX3926, SrEAOX expressed by the methods described above. After incubating 580 μl of a reagent consisting of the composition of Table 12 at 37° C. for 5 minutes, 20 μl of a substrate solution (1500 mM EAP) was added and mixed, and the amount of change at A555 (ΔAS) per 1 minute at 37° C. was measured using the spectrophotometer (U-3900, manufactured by Hitachi High-Tech Science Corporation). Subsequently, 20 μl of ion-exchanged water was added instead of the substrate solution and mixed, and the amount of change at A555 (ΔA0) per 1 minute at 37° C. was measured.
The oxidase activity was calculated based on the following formula: Oxidase activity (U/ml)=(ΔAS−ΔA0)×600.0×df/(39.2×0.5×x)=30.6×(ΔAS−ΔA0)×df/x • 39.2: Millimolar extinction coefficient (mM^−1cm^−1) of 4-AA-TOOS Condensation dye for 555 nm-wavelength light • df: Dilution rate of enzyme solution (Quantification of EAP by LrHP)

[2] = Quantification of EAP by LrHP by electrochemical methods (chronoamperometry); conditions: +600 mV (Ag/AgCl); 0 μM to 1400 μM and 0 μM to 170 μM EAP; FIG. 6, FIG. 7
Method: 20 μl of 150 mM Bicine-NaOH buffer solution (pH 7.5), 15 μl of 1.5 M potassium chloride solution, and 5 μl of LrHP solution (0.14 U/ml) were applied and mixed on a SCREEN-PRINTED ELECTRODES (manufactured by DropSens, Product Number DRP-C110). A dedicated connector (DRP-CAC) was then used to connect to ALS electrochemical analyzer 814D. Chronoamperometric measurements were performed at +600 mV (Ag/AgCl). Subsequently, 2 μl of EAP solution at each concentration was added, and the current value at 100 seconds after the initiation of measurement was recorded. Similar experiments were carried out using 5 μl of ultrapure water (ion-exchanged water) instead of LrHP solution as a control experiment.

[3] = Evaluation of substrate specificity of crude enzyme solution (PMS/DCIP, 96-well plate); conditions: 5 mM substrate, potassium phosphate buffer pH 8.0, PMS
Method: An activity measurement using 2, 6-Dichlorophenolindophenol (DCIP) was performed in a 96-well plate. […] As the substrate, taurine (manufactured by Fujifilm Wako Pure Chemical Corporation), ethanolamine phosphate (EAP, manufactured by Fujifilm Wako Pure Chemical Corporation), ethanolamine (manufactured by Tokyo Chemical Industry, Co., Ltd.), and benzylamine (manufactured by Tokyo Chemical Industry Co., Ltd.) were used.

Molecule	oxidase activity of the crude enzymatic solution against EAP [1] [U/L]	oxidase activity against EAP after being purified [1] [U/ml]	further results
B1	1.8	0.11	–
B2	2.6	0.16	–
B3	5.8	0.31	oxidase activity of purified LrHP solution used in the quantification reagent ([1]; final concentration of 50 mM EAP): 0.14 U/ml (*purified LrHP solutions); current value at 100 seconds after the initiation of measurement with increasing EAP [2]: current value also increased
B4	0.2	–	–
B5	–	–	degree of loss of blue color derived from DCIP (dehydrogenase activity), substrate benzylamine [3]: did not react; degree of loss of blue color derived from DCIP (dehydrogenase activity), substrate ethanolamine [3]: did not react; degree of loss of blue color derived from DCIP (dehydrogenase activity), substrate ethanolamine phosphate [3]: also reacted; degree of loss of blue color derived from DCIP (dehydrogenase activity), substrate taurine [3]: reacted most
B6	16	–	–
